The record followed here is paper PMC8694188, “EPSP Synthase-Depleted Cells Are Aromatic Amino Acid Auxotrophs in Mycobacterium smegmatis” (Microbiology Spectrum, 2021).

Numbering of substitutions follows the chain as printed. Numbers in names are those of the source.

The chains are these.
B1: MsEPSPS (Mycolicibacterium smegmatis MC2 155) (protein)
chain: MSARADEEQKPHWAAPSTTAPVDATVTVPGSKSLTNRALILAALATSQGTSTISGALRSRDTDLMIEAIRTLGVTVDISAADPTELTVHGSIEPATDATVDCGLAGTVLRFVPPVAALSRSSVTFDGDEQARSRPIAPLLDGLRRLGVRLDGDGLPFTVRGTGTVSGGTVEIDASGSSQFVSGLLLSGAGFENGLTIVHTGVSVPSAPHVAMTVAMLRDAGVEVDDSVANRWQVNPGPVAARSWNIEPDLSNSTPFLAAALVTGGTVRIAGWPTVSIQPADTILELLATVGGSVREADGHLEVTGAHEYGGFEADLHDVGELAPTVAALAALAKEGSTSQLRGIAHLRGHETDRLAALTTEINGLGGDCRETDDGLLITARPLHGGTWRSYADHRMATAGAIVGLRVPGVVVENIETTAKTLPDFPSMWVDMLAGEPGRNQQR
notes: full-length WT aroA in pET-23a(+) (NdeI/HindIII), expressed in E. coli; no tag evident (native stop codon in reverse primer, ion-exchange and hydrophobic purification); apparent mass 46 kDa on SDS-PAGE
B2: MsEPSPS (Mycolicibacterium smegmatis MC2 155; R134A) (protein)
chain: B1 chain with R134A
notes: as for B1
B3: MsEPSPS (Mycolicibacterium smegmatis MC2 155; D61W) (protein)
chain: B1 chain with D61W
notes: as for B1
B4: MsEPSPS (Mycolicibacterium smegmatis MC2 155; E321N) (protein)
chain: B1 chain with E321N
notes: as for B1

Substrate in the data set: C=C(OP(=O)(O)O)C(=O)O
Description: continuous coupled spectrophotometric Pi release assay (MtPNP / MESG). As to conditions: apparent constant, PEP varied at fixed-saturating S3P, 100 mM Tris-HCl pH 7.8, 25°C. In kind it is biochemical, Mycolicibacterium smegmatis. The source says: continuous coupled spectrophotometric Pi release assay (MtPNP / MESG) on MsEPSPS
Broadly, the Km is the substrate concentration at which the rate is half of its maximum. Broadly, the kcat is the number of substrate molecules converted per active site and unit of time at saturation. The term kcat/Km denotes the turnover number divided by the Michaelis constant. Turning to B1, the Km was determined as 88 ± 11 µM, the catalytic constant (kcat) amounted to 0.553 ± 0.0185 s⁻¹ and the catalytic efficiency (kcat/Km) worked out at 6280 M⁻¹ s⁻¹.

Take B2: the Michaelis constant (Km) is listed as 3,676 ± 1,007 μM, the kcat stood at 0.184 ± 0.033 s⁻¹ and the kcat/Km came to 50.1 M⁻¹ s⁻¹.

Consider B3, for which the Km is 1,014 ± 975 μM, the kcat stood at 0.107 ± 0.0608 s⁻¹ and the kcat/Km came to 106 M⁻¹ s⁻¹.

In the case of B4, the Km is 3,081 ± 808 μM, the catalytic constant (kcat) amounted to 0.438 ± 0.0469 s⁻¹ and the kcat/Km turned out to be 142 M⁻¹ s⁻¹.
